Laboratory results from US20170101454A1 (Novo Nordisk, published 2017).
Starred links: 1 amine or outer side, 2 acyl side, 3 side chain; linkers in the order of their positions; H or OH if unused. Non-standard residues stand in square brackets, D forms with d. Groups on a side chain read outwards from the residue. No end group written: not given here. *: point of attachment. C18 diacid = O=C(O)CCCCCCCCCCCCCCCCC(=O)*; γGlu = O=C(O)[C@H](CCC(=O)[*:2])N[*:1]; AEEA = NCCOCCOCC(=O)O; Aib = CC(C)(N)C(=O)O

Assays:
human GLP-1 receptor = biological target: T1, human GLP-1 receptor (human, UniProt P43220 24-463); test: displacement of [125I]-GLP-1-(7-36)NH2 from BHK membranes with human GLP-1R, SPA, no serum albumin
T1 construct: whole, on cells; reporter assay used whole cells

human glucagon receptor = biological target: T2, human glucagon receptor (human, UniProt P47871 26-477); test: displacement of [125I]-glucagon from BHK membranes with human glucagon receptor, SPA, no serum albumin
T2 construct: whole, on cells; reporter assay used whole cells; also called hGCGR
T2 sequence (P47871 26-477): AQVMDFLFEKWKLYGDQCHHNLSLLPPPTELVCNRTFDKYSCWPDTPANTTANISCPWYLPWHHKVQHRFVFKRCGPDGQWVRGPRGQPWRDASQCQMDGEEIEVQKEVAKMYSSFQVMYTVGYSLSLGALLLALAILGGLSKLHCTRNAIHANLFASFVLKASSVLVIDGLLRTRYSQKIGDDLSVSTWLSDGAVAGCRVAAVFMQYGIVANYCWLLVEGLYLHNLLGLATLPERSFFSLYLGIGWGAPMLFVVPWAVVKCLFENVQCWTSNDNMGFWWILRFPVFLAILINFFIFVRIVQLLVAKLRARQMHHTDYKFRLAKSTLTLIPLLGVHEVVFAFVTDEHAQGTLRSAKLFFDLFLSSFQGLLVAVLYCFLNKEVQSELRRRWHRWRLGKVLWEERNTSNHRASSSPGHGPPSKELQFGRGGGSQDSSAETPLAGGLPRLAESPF

Row | Binder | IC50 (human GLP-1 receptor) | IC50 (human glucagon receptor)
1 | H[Aib]QGTFTSDLSKYLDLRRARDFVAWLISK([γGlu-γGlu-AEEA-AEEA-γGlu-C18 diacid])-NH2 (N-terminus assumed; SMILES CC[C@H](C)[C@H](NC(=O)[C@H](CC(C)C)NC(=O)[C@H](Cc1c[nH]c2ccccc12)NC(=O)[C@H](C)NC(=O)[C@@H](NC(=O)[C@H](Cc1ccccc1)NC(=O)[C@H](CC(=O)O)NC(=O)[C@H](CCCNC(=N)N)NC(=O)[C@H](C)NC(=O)[C@H](CCCNC(=N)N)NC(=O)[C@H](CCCNC(=N)N)NC(=O)[C@H](CC(C)C)NC(=O)[C@H](CC(=O)O)NC(=O)[C@H](CC(C)C)NC(=O)[C@H](Cc1ccc(O)cc1)NC(=O)[C@H](CCCCN)NC(=O)[C@H](CO)NC(=O)[C@H](CC(C)C)NC(=O)[C@H](CC(=O)O)NC(=O)[C@H](CO)NC(=O)[C@@H](NC(=O)[C@H](Cc1ccccc1)NC(=O)[C@@H](NC(=O)CNC(=O)[C@H](CCC(N)=O)NC(=O)C(C)(C)NC(=O)[C@@H](N)Cc1c[nH]cn1)[C@@H](C)O)[C@@H](C)O)C(C)C)C(=O)N[C@@H](CO)C(=O)N[C@@H](CCCCNC(=O)CC[C@H](NC(=O)CC[C@H](NC(=O)COCCOCCNC(=O)COCCOCCNC(=O)CC[C@H](NC(=O)CCCCCCCCCCCCCCCCC(=O)O)C(=O)O)C(=O)O)C(=O)O)C(N)=O) | 1.1 nM | 144 nM
2 | H[Aib]QGTFTSDLSKYLDLRRAREFVQWLISK([γGlu-γGlu-AEEA-AEEA-γGlu-C18 diacid])-NH2 (N-terminus assumed; SMILES CC[C@H](C)[C@H](NC(=O)[C@H](CC(C)C)NC(=O)[C@H](Cc1c[nH]c2ccccc12)NC(=O)[C@H](CCC(N)=O)NC(=O)[C@@H](NC(=O)[C@H](Cc1ccccc1)NC(=O)[C@H](CCC(=O)O)NC(=O)[C@H](CCCNC(=N)N)NC(=O)[C@H](C)NC(=O)[C@H](CCCNC(=N)N)NC(=O)[C@H](CCCNC(=N)N)NC(=O)[C@H](CC(C)C)NC(=O)[C@H](CC(=O)O)NC(=O)[C@H](CC(C)C)NC(=O)[C@H](Cc1ccc(O)cc1)NC(=O)[C@H](CCCCN)NC(=O)[C@H](CO)NC(=O)[C@H](CC(C)C)NC(=O)[C@H](CC(=O)O)NC(=O)[C@H](CO)NC(=O)[C@@H](NC(=O)[C@H](Cc1ccccc1)NC(=O)[C@@H](NC(=O)CNC(=O)[C@H](CCC(N)=O)NC(=O)C(C)(C)NC(=O)[C@@H](N)Cc1c[nH]cn1)[C@@H](C)O)[C@@H](C)O)C(C)C)C(=O)N[C@@H](CO)C(=O)N[C@@H](CCCCNC(=O)CC[C@H](NC(=O)CC[C@H](NC(=O)COCCOCCNC(=O)COCCOCCNC(=O)CC[C@H](NC(=O)CCCCCCCCCCCCCCCCC(=O)O)C(=O)O)C(=O)O)C(=O)O)C(N)=O) | 0.9 nM | 71.2 nM
3 | H[Aib]QGTFTSDLSKYLDLRRARDFVQWLISK([γGlu-γGlu-AEEA-AEEA-γGlu-C18 diacid])-NH2 (N-terminus assumed; SMILES CC[C@H](C)[C@H](NC(=O)[C@H](CC(C)C)NC(=O)[C@H](Cc1c[nH]c2ccccc12)NC(=O)[C@H](CCC(N)=O)NC(=O)[C@@H](NC(=O)[C@H](Cc1ccccc1)NC(=O)[C@H](CC(=O)O)NC(=O)[C@H](CCCNC(=N)N)NC(=O)[C@H](C)NC(=O)[C@H](CCCNC(=N)N)NC(=O)[C@H](CCCNC(=N)N)NC(=O)[C@H](CC(C)C)NC(=O)[C@H](CC(=O)O)NC(=O)[C@H](CC(C)C)NC(=O)[C@H](Cc1ccc(O)cc1)NC(=O)[C@H](CCCCN)NC(=O)[C@H](CO)NC(=O)[C@H](CC(C)C)NC(=O)[C@H](CC(=O)O)NC(=O)[C@H](CO)NC(=O)[C@@H](NC(=O)[C@H](Cc1ccccc1)NC(=O)[C@@H](NC(=O)CNC(=O)[C@H](CCC(N)=O)NC(=O)C(C)(C)NC(=O)[C@@H](N)Cc1c[nH]cn1)[C@@H](C)O)[C@@H](C)O)C(C)C)C(=O)N[C@@H](CO)C(=O)N[C@@H](CCCCNC(=O)CC[C@H](NC(=O)CC[C@H](NC(=O)COCCOCCNC(=O)COCCOCCNC(=O)CC[C@H](NC(=O)CCCCCCCCCCCCCCCCC(=O)O)C(=O)O)C(=O)O)C(=O)O)C(N)=O) | 1 nM | 64.7 nM

Now those with a lower IC50 (human GLP-1 receptor), led by results:

Row | IC50 (human GLP-1 receptor) | IC50 (human glucagon receptor) | Binder
4 | 0.3 nM | 67.3 nM | H[Aib]QGTFTSDLSKYLDLRRAREFVQWLINK([γGlu-γGlu-AEEA-AEEA-γGlu-C18 diacid])-NH2 (N-terminus assumed; SMILES CC[C@H](C)[C@H](NC(=O)[C@H](CC(C)C)NC(=O)[C@H](Cc1c[nH]c2ccccc12)NC(=O)[C@H](CCC(N)=O)NC(=O)[C@@H](NC(=O)[C@H](Cc1ccccc1)NC(=O)[C@H](CCC(=O)O)NC(=O)[C@H](CCCNC(=N)N)NC(=O)[C@H](C)NC(=O)[C@H](CCCNC(=N)N)NC(=O)[C@H](CCCNC(=N)N)NC(=O)[C@H](CC(C)C)NC(=O)[C@H](CC(=O)O)NC(=O)[C@H](CC(C)C)NC(=O)[C@H](Cc1ccc(O)cc1)NC(=O)[C@H](CCCCN)NC(=O)[C@H](CO)NC(=O)[C@H](CC(C)C)NC(=O)[C@H](CC(=O)O)NC(=O)[C@H](CO)NC(=O)[C@@H](NC(=O)[C@H](Cc1ccccc1)NC(=O)[C@@H](NC(=O)CNC(=O)[C@H](CCC(N)=O)NC(=O)C(C)(C)NC(=O)[C@@H](N)Cc1c[nH]cn1)[C@@H](C)O)[C@@H](C)O)C(C)C)C(=O)N[C@@H](CC(N)=O)C(=O)N[C@@H](CCCCNC(=O)CC[C@H](NC(=O)CC[C@H](NC(=O)COCCOCCNC(=O)COCCOCCNC(=O)CC[C@H](NC(=O)CCCCCCCCCCCCCCCCC(=O)O)C(=O)O)C(=O)O)C(=O)O)C(N)=O, also called Chem. 22; Chem 22)
5 | 0.3 nM | 83.2 nM | H[Aib]QGTFTSDLSKYLDLRRARDFVQWLINK([γGlu-γGlu-AEEA-AEEA-γGlu-C18 diacid])-NH2 (N-terminus assumed; SMILES CC[C@H](C)[C@H](NC(=O)[C@H](CC(C)C)NC(=O)[C@H](Cc1c[nH]c2ccccc12)NC(=O)[C@H](CCC(N)=O)NC(=O)[C@@H](NC(=O)[C@H](Cc1ccccc1)NC(=O)[C@H](CC(=O)O)NC(=O)[C@H](CCCNC(=N)N)NC(=O)[C@H](C)NC(=O)[C@H](CCCNC(=N)N)NC(=O)[C@H](CCCNC(=N)N)NC(=O)[C@H](CC(C)C)NC(=O)[C@H](CC(=O)O)NC(=O)[C@H](CC(C)C)NC(=O)[C@H](Cc1ccc(O)cc1)NC(=O)[C@H](CCCCN)NC(=O)[C@H](CO)NC(=O)[C@H](CC(C)C)NC(=O)[C@H](CC(=O)O)NC(=O)[C@H](CO)NC(=O)[C@@H](NC(=O)[C@H](Cc1ccccc1)NC(=O)[C@@H](NC(=O)CNC(=O)[C@H](CCC(N)=O)NC(=O)C(C)(C)NC(=O)[C@@H](N)Cc1c[nH]cn1)[C@@H](C)O)[C@@H](C)O)C(C)C)C(=O)N[C@@H](CC(N)=O)C(=O)N[C@@H](CCCCNC(=O)CC[C@H](NC(=O)CC[C@H](NC(=O)COCCOCCNC(=O)COCCOCCNC(=O)CC[C@H](NC(=O)CCCCCCCCCCCCCCCCC(=O)O)C(=O)O)C(=O)O)C(=O)O)C(N)=O)
